Data on 31 molecules can be found in US20140079753A1, “BMP BINDING PEPTIDES” (Affinergy, LLC, priority 2011, published 2014).

The target of assay [1] is T1, BMP2 (Homo sapiens, UniProt P12643).
T1 construct: purchased MEDTRONIC, INC
T1 sequence (P12643 283-396): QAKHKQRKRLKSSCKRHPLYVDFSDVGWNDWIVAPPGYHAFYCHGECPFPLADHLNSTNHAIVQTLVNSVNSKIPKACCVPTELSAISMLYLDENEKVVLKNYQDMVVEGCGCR
Put plainly: BMP2 binding ELISA of synthetic truncation peptides. Also on record: key: (−) no binding; (+) binding similar to that of full-length SEQ ID NO: 148 binding; (−/+) binding decreased relative to full-length SEQ ID NO: 148 binding. The following applies: relative to full-length SEQ ID NO: 148, ELISA. As for the experimental part:
The relative binding affinity of synthetic BMP binding peptides SEQ ID NOs: 54-56 for BMP2 is shown in FIG. 17 (SEQ ID NO: 54 (Peptide 1); SEQ ID NO: 55 (Peptide 2); SEQ ID NO: 56 (Peptide 3)). Briefly, the results shown in FIG. 17 were generated by immobilizing biotinylated BMP binding peptides on streptavidin coated plates. Serial dilutions of 100 nM, 20 nM, 4 nM, 0.8 nM, 0.16 nM, 0.032 nM 0.006 nM, and 0.001 nM of BMP-2 were incubated with the immobilized BMP binding peptides for 60 minutes, washed 5 times, and bound BMP quantified using ELISA using mouse anti-BMP2 antibody and anti-mouse IgG-alkaline phosphatase conjugate. In addition, the specificity of BMP binding peptide binding SEQ ID NO: 54 to various members of the BMP family was performed in a similar manner by titrating BMP2, BMP3, BMP5, BMP6, GDF5, GDF7, TGFb1, TGFb3, and PDGF-BB (see FIG. 18).
(§1) For the truncation analysis, peptides with one or more N or C-terminal deletions of SEQ ID NO: 148 were synthesized and tested for BMP2 binding using an ELISA assay. The truncation peptides are shown in Table 5 below along with the relative BMP2 binding activity that was measured for each of the peptides according to the procedure described herein above. The relative BMP2 binding activity is depicted as follows: (−) no binding; (+) binding similar to that of full-length SEQ ID NO: 148 binding; (−/+) binding decreased relative to full-length SEQ ID NO: 148 binding.
Background: ELISA stands for enzyme-linked immunosorbent assay.

Assay [2] concerns dermal fibroblasts. Nature of the assay: Flow cytometry binding of biotinylated peptides to cells (Neutravidin-PE). The following applies: biotinylated peptide 25 μM, 30 min at 4° C, percent positivity vs Neutravidin-PE alone; data not shown. An excerpt: (§2) Synthetic biotinylated cell binding peptides SEQ ID NOs: 1 and 2 were examined for their ability to specifically bind ASCs compared to a number of other cells types including bone marrow mesenchymal stem cells (MSCs), dermal fibroblasts, red blood cells, monocytes, lymphocytes granulocytes, and platelets. The cell binding peptides were biotinylated as described herein at Example 2. Cultured cells of each type were either purchased (dermal fibroblasts) or isolated from human bone marrow (MSCs) or human blood. Cells were first harvested with 2 mM EDTA in DPBS and resuspended at 10^6/mL in PBS+2% fetal bovine serum (FBS). An aliquot of cells ([…]) was incubated in 50 μL of peptide solution (25 μM in PBS+FBS) for 30 min at 4° C. Cells were then washed twice in PBS+2% FBS with 300×g centrifugation for 5 min between washes. Fluorescently-tagged neutravidin (Neutravidin-PE from INVITROGEN) was then added to the cells to label biotinylated peptide bound to cells. Neutravidin-PE was diluted 1:250 from stock and applied at 50 μL to cells. Cells were then washed in PBS+FBS, and acquired on a BD FACSARRAY. Peptide reactivity was then measured as percent positivity relative to Neutravidin-PE staining without the addition of biotinylated peptide.

Assay [3] relates to human ASCs. The description is as above. The following applies: biotinylated peptide 25 μM, 30 min at 4° C, percent positivity vs Neutravidin-PE alone; data not shown.
Source text: as §2

Assay [4] has as its system human ASCs (hASCs). Put plainly: Cell capture by biotinylated peptide on streptavidin plate (CELLTITER GLO). The class given is cell-based. The following applies: 45 min room temperature, cellular ATP, FIG. 15. As for the experimental part:
(§3) In this experiment, the ability of biotinylated cell binding peptides SEQ ID NOs: 1 and 2 to capture ASCs and fibroblasts from a single cell suspension onto a solid support was examined. The cell binding peptides were biotinylated as described herein at Example 2. The cell binding peptides and control peptides lacking cell binding activity were added to a 96 well plate containing immobilized streptavidin. After 30 min at room temperature, excess peptide was washed away with PBS+0.1% Tween 20, followed by 2 washes with PBS. Dilutions of single cell suspensions of either human ASCs (hASCs), rabbit ASCs, rat fibroblasts, or human dermal fibroblasts (hDermFib) were added to the peptide coated wells and incubated for 45 min at room temperature with gentle shaking. Wells were washed 3 times with DPBS+2% FBS. The number of attached cells was determined by measuring cellular ATP with CELLTITER GLO reagent from PROMEGA.

Assay [5] deals with rabbit ASCs. The assay is described as above. The class given is cell-based. The following applies: 45 min room temperature, cellular ATP, FIG. 15. Here is the method:
as §3

Assay [6] concerns rat fibroblasts. Described as above. The class given is cell-based. Particulars: 45 min room temperature, cellular ATP, FIG. 15. Here is the method: as §3
In assay [7] the test system is adipose derived stem cells (ASCs). Nature of the assay: Phage whole cell ELISA for ASC binding. Particulars: ranking among SEQ ID NO: 1 mutagenesis variants of Table 2. As for the experimental part: Peptides that bind adipose derived stem cells (ASCs) were identified by phage display biopanning. ASCs were culture amplified from processed liposuction aspirate (<3 passages) (ZEN-BIO, Research Triangle Park, N.C.). After biopanning, individual plaques were picked, grown overnight, and tested for ASC binding activity using whole cell ELISA according to the following procedure. Phage supernatant was incubated for 30 min at room temperature with ASC monolayers established by overnight culture in 96 well plates. Cells were washed four times with Dulbecco's Phosphate Buffered Saline (DPBS) containing 2% FBS, then incubated with 100 μl of horseradish peroxidase conjugated anti-M13 antibody. After 30 minutes at room temperature, cells were washed four times with DPBS containing 2% FBS. M13 antibody binding was detected by the addition of 3,3′,5,5′-Tetramethylbenzidine (TMB). Blue reaction product, indicating positive binding phage, was measured by absorbance at 370 nm in a microplate reader. For the phage displaying ASC binding activity, DNA sequences were analyzed and translated into peptide sequences using Vector NTI DNA Analysis software and are shown below in Table 1.
Mutagenesis of Cell Binding Peptide Sequence SEQ ID NO: 1. A focused phage display library was generated around the cell binding sequence SEQ ID NO: 1 with each nucleotide position varying in identity at a ratio of 70:10:10:10, with the original nucleotide being the dominant form. This is considered a form of “light” mutagenesis, retaining the majority of residue identities with a few amino acid identity changes. The construction of this “degenerate” phage library was performed according to the methods described in Kay et al., 1996. Three rounds of phage display biopanning were performed on ASCs to enrich for positive binding sequences. Phage showing positive binding to ASCs, identified by whole cell ELISA, were re-amplified, retested, and submitted for DNA sequencing to determine the insert amino acid sequences. In FIG. 14 the single letter amino acid sequence of SEQ ID NO: 1 is shown at the top in white letters with black shading. The phage that retained cell binding activity to adipose derived stem cells (ASCs) and fibroblasts are listed below SEQ ID NO: 1 with original amino acids in white with black shading. Amino acid substitutions are shown in black letters with white shading.

In assay [8] the test system is human dermal fibroblasts (hDermFib). Put plainly: Cell capture by biotinylated peptide on streptavidin plate (CELLTITER GLO). The class given is cell-based. Particulars: 45 min room temperature, cellular ATP, FIG. 15. Here is the method:
as §3
Background: In ATP-based viability assays light output follows the ATP content of the culture.

Assay [9] addresses T2, BMP2 (MEDTRONIC, INC.) (UniProt P12643 283-396, biotinylated with NHS-biotin (average of one biotin per protein molecule) in the phage ELISA; not biotinylated in the peptide ELISA).
T2 construct: also called bone morphogenic protein 2
Put plainly: ELISA of synthetic truncation peptides on BMP2; legend in paragraph 124: (-) no binding. Here is the method: as §1

Turning to 191 (SIWDDWIG) [compound 191], the BMP2 binding entry in [1] is “−/+”.

Take 185 (IWDDWIGYSR) [compound 185]: the BMP2 binding result in assay [1] was “−”. 186 (WDDWIGYSR) [compound 186]: the BMP2 binding entry in assay [1] was “−”. The same measure, in the same setting: then 194 (IWDDWIGY) [compound 194], with “−”.

On to SSWHISHDSIGVLIR [SEQ ID NO: 1], for which the “binding to dermal fibroblasts” value in assay [2] is “significant binding”. The “binding to human ASCs” value in assay [3] was “significant binding”. In addition, the “capture of human ASCs” value in [4] is on record as “capture human ASCs”. Also, the “capture of rabbit ASCs” value in assay [5] is “to a lesser extent”. Besides, the “capture of rat fibroblasts” value in [6] is on record as “to a lesser extent”. For 188 (DWIGYSR) [compound 188], in assay [1], the BMP2 binding entry was “−”. Consider SAFHSSHDSIGVFIN [SEQ ID NO: 21], for which the “binding affinity for ASCs” value in [7] is “highest binding affinity”. Regarding 193 (IWDDWIGYS) [compound 193], the BMP2 binding entry in [1] is “−”. The same measure, in the same setting: as for 195 (WDDWIGY) [compound 195], the entry is “−”. The same measure, in the same setting: as for 187 (DDWIGYSR) [compound 187], the entry is “−”.

In the case of SNWHITHDSIGVLVR [SEQ ID NO: 3], the “binding affinity for ASCs” value in assay [7] was “highest binding affinity”.

In the case of SFWHVTHDSTGVLIR [SEQ ID NO: 4], the “binding affinity for ASCs” value in assay [7] is “highest binding affinity”.

Take 148 (SIWDDWIGYSR) [compound 148]: the BMP2 binding entry in assay [1] is “+”. On the same count and under the same terms, then 196 (WDDWIG) [compound 196], with “−”; and 192 (SIWDDWI) [compound 192], with “−/+”. For SNWTSSHDDIGVFLR [SEQ ID NO: 29], the “binding affinity for ASCs” value in assay [7] is listed as “highest binding affinity”. For 197 (IWDDWI) [compound 197], the BMP2 binding result in assay [1] is given as “−”. On to SSWHISHDDIGVFIR [SEQ ID NO: 6], for which the “binding affinity for ASCs” value in assay [7] is “highest binding affinity”. In the case of 189 (SIWDDWIGYS) [compound 189], in assay [1], the BMP2 binding entry was “+”. As to SSFHISHDNIGVFVR [SEQ ID NO: 9], the “binding affinity for ASCs” value in [7] is “highest binding affinity”. Regarding SHCVLGHDGRSRCII [SEQ ID NO: 2], in assay [2], the “binding to dermal fibroblasts” value is recorded as “significant binding”. Moreover, in assay [3], the “binding to human ASCs” value is “significant binding”. In [4], the “capture of human ASCs” value is on record as “behaved similarly”. In addition, the “capture of human fibroblasts” value in assay [8] is on record as “behaved similarly”. Also, the “capture of rabbit ASCs” value in assay [5] is “behaved similarly”. For the same molecule, the “capture of rat fibroblasts” value in assay [6] was “without exhibiting significant binding”. Take 190 (SIWDDWIGY) [compound 190]: in assay [1], the BMP2 binding result was “+”.

B1: Truncation peptide SEQ ID NO: 195 (peptide)
peptide: WDDWIGY
modifications: C-terminal GSSGK(biotin) or other spacer group possible; not stated for this assay
notes: also called WDDWIGY
Take B1: the binding result in [9] is reported as “no binding”.

B2: Truncation peptide SEQ ID NO: 194 (peptide)
peptide: IWDDWIGY
modifications: C-terminal GSSGK(biotin) or other spacer group possible; not stated for this assay
As for B2, in assay [9], the binding result is on record as “no binding”.

B3: Truncation peptide SEQ ID NO: 196 (peptide)
peptide: WDDWIG
modifications: C-terminal GSSGK(biotin) or other spacer group possible; not stated for this assay
notes: also called WDDWIG
As for B3, the binding result in [9] is “no binding”.

B4: Truncation peptide SEQ ID NO: 197 (peptide)
peptide: IWDDWI
modifications: C-terminal GSSGK(biotin) or other spacer group possible; not stated for this assay
notes: also called IWDDWI
B4: the binding result in assay [9] is recorded as “no binding”.

B5: Truncation peptide SEQ ID NO: 187 (peptide)
peptide: DDWIGYSR
modifications: C-terminal GSSGK(biotin) or other spacer group possible; not stated for this assay
Take B5: the binding result in assay [9] is reported as “no binding”.

B6: Truncation peptide SEQ ID NO: 185 (peptide)
peptide: IWDDWIGYSR
modifications: C-terminal GSSGK(biotin) or other spacer group possible; not stated for this assay
Consider B6, for which the binding result in [9] was “no binding”.

B7: Truncation peptide SEQ ID NO: 188 (peptide)
peptide: DWIGYSR
modifications: C-terminal GSSGK(biotin) or other spacer group possible; not stated for this assay
notes: also called DWIGYSR
For B7, the binding result in assay [9] is given as “no binding”.

B8: Truncation peptide SEQ ID NO: 193 (peptide)
peptide: IWDDWIGYS
modifications: C-terminal GSSGK(biotin) or other spacer group possible; not stated for this assay
Regarding B8, the binding result in assay [9] was “no binding”.

B9: Truncation peptide SEQ ID NO: 186 (peptide)
peptide: WDDWIGYSR
modifications: C-terminal GSSGK(biotin) or other spacer group possible; not stated for this assay
B9: the binding result in [9] is “no binding”.
